Earlier results in PMC4245983 (Biochemistry, 2014).
“Also recorded” adds a separate entry of the source.

Tests used:
Hsc70 NBD = settings: NBD with interdomain linker; ref 32 (b59 prints ref 23)
HscA [1] = settings: 25 °C; background statement, no reference given
HscA [2] = settings: read-out: Km of WT HscA (ATP)
WT HscA = settings: read-out: Kd^ATP of WT HscA
HscA [3] = settings: compared to DnaK
[4] = tested on: [2Fe-2S] cluster transfer

B1: auxilin: J-protein of Hsc70 (protein, UniProt Q27974 1-910, looked up)
Auxilin: MDSSGASSPDMEPSYGGGLFDMVKGGAGRLFSNLKDNLKDTLKDTSSRVIQSVTSYTKGDLDFTYVTSRIIVMSFPLDSVDIGFRNQVDDIRSFLDSRHLDHYTVYNLSPKSYRTAKFHSRVSECSWPIRQAPSLHNLFAVCRNMYNWLLQNPKNVCVVHCLDGRAASSILVGAMFIFCNLYSTPGPAVRLLYAKRPGIGLSPSHRRYLGYMCDLLADKPYRPHFKPLTIKSITVSPVPFFNKQRNGCRPYCDVLIGETKIYTTCADFERMKEYRVQDGKIFIPLSITVQGDVVVSMYHLRSTIGSRLQAKVTNTQIFQLQFHTGFIPLDTTVLKFTKPELDACDVPEKYPQLFQVTLDVELQPHDKVMELTPPWEHYCTKDVNPSILFSSHQEHQDTLVLGGQAPIDIPPDNPRHFGQGGFFSTLCWQDQKSEKSFCEEDHAALVNQESEQSDDELLTLSSPHGNANGDKPHAARKPSKKQQEPAAPAPPEDVDLLGLEGSAVSKNFSSPAAPPSNSELLSDLFGGGGAAGPVQSGQSGVDDVFHPSGPTSTQSTPRRSATSTSASPTLRVGEGATFDPFGAPSKPSGQDLLGSFLNTASASSDPFLQPTRSPSPTVHASSTPAVNIQPDVSGAWDWHTKPGGFGMGSKSAATSPTGSSHGTPTHQNKPQTLDPFADLGTLGGSSFASKPSTPTGLGGGFPPLSSPQKASPQPMGGGWQQGGGYNWQQTQSKPQSSMPHSSPQNRPNYNVSFSSMPGGQNERGKAAANLEGKQKAADFEDLLSGQGFNAHKDKKGPRTIAEMRKEEMAKEMDPEKLKILEWIEGKERNIRALLSTMHTVLWAGETKWKPVGMADLVTPEQVKKVYRKAVLVVHPDKATGQPYEQYAKMIFMELNDAWSEFENQGQKPLY
For B1, the “effect on ATPase activity of Hsc70 NBD variants” value (Hsc70 NBD) is given as “stimulated by its J-protein (auxilin) if and only if the interdomain linker was present; also recorded: could be stimulated by its J-protein, auxilin”.

B2: WT HscA: specialized Hsp70-type chaperone (66 kDa) of E. coli (protein, UniProt P0A6Z1 1-616, looked up)
chain: MALLQISEPGLSAAPHQRRLAAGIDLGTTNSLVATVRSGQAETLADHEGRHLLPSVVHYQQQGHSVGYDARTNAALDTANTISSVKRLMGRSLADIQQRYPHLPYQFQASENGLPMIETAAGLLNPVRVSADILKALAARATEALAGELDGVVITVPAYFDDAQRQGTKDAARLAGLHVLRLLNEPTAAAIAYGLDSGQEGVIAVYDLGGGTFDISILRLSRGVFEVLATGGDSALGGDDFDHLLADYIREQAGIPDRSDNRVQRELLDAAIAAKIALSDADSVTVNVAGWQGEISREQFNELIAPLVKRTLLACRRALKDAGVEADEVLEVVMVGGSTRVPLVRERVGEFFGRPPLTSIDPDKVVAIGAAIQADILVGNKPDSEMLLLDVIPLSLGLETMGGLVEKVIPRNTTIPVARAQDFTTFKDGQTAMSIHVMQGERELVQDCRSLARFALRGIPALPAGGAHIRVTFQVDADGLLSVTAMEKSTGVEASIQVKPSYGLTDSEIASMIKDSMSYAEQDVKARMLAEQKVEAARVLESLHGALAADAALLSAAERQVIDDAAAHLSEVAQGDDVDAIEQAIKNVDKQTQDFAARRMDQSVRRALKGHSVDEV
modifications: full-length
In the case of B2, the “intrinsic ATPase activity” value (HscA [1]) is listed as 0.02 min^–1, the Km (HscA [2]) is listed as 12.6 µM and the Kd (WT HscA) is listed as 26 ± 7 µM. For the same molecule, the “preferential binding to conformational state of IscU” value (IscU) was “binds preferentially to the D-state”, the “binding affinity for ATP, fold weaker than DnaK” value (HscA [3]) was 10^3 fold and the “rate of ADP dissociation, fold higher than DnaK” value (HscA [3]) was > 10^3 fold.

B3: HscA T212V (protein, UniProt P0A6Z1 1-616, looked up, variant T212V)
Chaperone protein HscA: MALLQISEPGLSAAPHQRRLAAGIDLGTTNSLVATVRSGQAETLADHEGRHLLPSVVHYQQQGHSVGYDARTNAALDTANTISSVKRLMGRSLADIQQRYPHLPYQFQASENGLPMIETAAGLLNPVRVSADILKALAARATEALAGELDGVVITVPAYFDDAQRQGTKDAARLAGLHVLRLLNEPTAAAIAYGLDSGQEGVIAVYDLGGGVFDISILRLSRGVFEVLATGGDSALGGDDFDHLLADYIREQAGIPDRSDNRVQRELLDAAIAAKIALSDADSVTVNVAGWQGEISREQFNELIAPLVKRTLLACRRALKDAGVEADEVLEVVMVGGSTRVPLVRERVGEFFGRPPLTSIDPDKVVAIGAAIQADILVGNKPDSEMLLLDVIPLSLGLETMGGLVEKVIPRNTTIPVARAQDFTTFKDGQTAMSIHVMQGERELVQDCRSLARFALRGIPALPAGGAHIRVTFQVDADGLLSVTAMEKSTGVEASIQVKPSYGLTDSEIASMIKDSMSYAEQDVKARMLAEQKVEAARVLESLHGALAADAALLSAAERQVIDDAAAHLSEVAQGDDVDAIEQAIKNVDKQTQDFAARRMDQSVRRALKGHSVDEV
For B3, the “effect of ATPase deficient mutant on [2Fe-2S] cluster transfer” value [4] is listed as “abolishes [2Fe-2S] cluster transfer”.
